Source: patent US20130273029A1 (Novartis, published 2013)

Experiments:
[1] = biological target: T1, HER3 L268A: CD33-[Human HER3, residues 20-640, L268A]-TAG (human, UniProt P21860 20-640); experiment: SET
T1 construct: also called HER3 L268A-Tag; human mutant HER3 (L268A); not shown: C-terminal TAG (e.g., FLAG TAG)

[2] = biological target: T2, HER3 K267A/L268A: CD33-[Human HER3, residues 20-640, K267A/L268A]-TAG (human, UniProt P21860 20-640); experiment: SET
T2 construct: not shown: C-terminal TAG (e.g., FLAG TAG)
T2 sequence (P21860 20-640 K267A/L268A): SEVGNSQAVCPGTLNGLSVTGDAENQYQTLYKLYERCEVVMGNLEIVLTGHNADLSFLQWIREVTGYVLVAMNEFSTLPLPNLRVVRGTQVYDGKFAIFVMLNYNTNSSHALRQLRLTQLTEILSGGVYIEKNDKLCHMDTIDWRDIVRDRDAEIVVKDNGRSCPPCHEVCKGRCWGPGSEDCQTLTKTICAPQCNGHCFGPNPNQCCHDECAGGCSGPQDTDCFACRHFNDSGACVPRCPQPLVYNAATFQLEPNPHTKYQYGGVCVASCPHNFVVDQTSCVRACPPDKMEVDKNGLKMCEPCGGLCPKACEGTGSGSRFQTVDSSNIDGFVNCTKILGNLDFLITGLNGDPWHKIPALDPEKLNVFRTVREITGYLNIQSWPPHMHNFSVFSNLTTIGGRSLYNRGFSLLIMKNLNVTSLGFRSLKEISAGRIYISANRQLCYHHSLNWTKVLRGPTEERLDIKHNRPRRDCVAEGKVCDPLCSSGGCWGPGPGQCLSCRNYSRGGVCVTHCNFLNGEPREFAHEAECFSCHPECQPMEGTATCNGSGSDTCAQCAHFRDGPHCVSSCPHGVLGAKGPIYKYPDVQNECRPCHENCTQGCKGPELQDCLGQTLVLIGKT

[3] = biological target: T3, Hu HER3: CD33-[Human HER3, residues 20-640]-TAG (human, UniProt P21860 20-640); experiment: SET, IgG vs HER3 ECD
T3 construct: also called hu HER3-Tag; HER3-Tag; not shown: C-terminal TAG (e.g., FLAG TAG)
T3 sequence (P21860 20-640): as the sequence (P21860 20-640 K267A/L268A) above, with A248K, A249L counted along it
Description: Affinity determination in solution was essentially performed as previously described (Friguet et al., (1985) J Immunol Methods 77:305-19). In order to improve the sensitivity and accuracy of the SET method, it was transferred from classical ELISA to ECL based technology (Haenel et al., (2005) Anal Biochem 339:182-84).
The data was evaluated with XLfit software (ID Business Solutions) applying customized fitting models.
Antibody affinity was determined by solution equilibrium titration (SET) as described above. The results are summarized in Table 3 and example titration curves for MOR12616 and MOR12925 are contained in FIG. 1.

[4] = biological target: T4, Human HER3, endogenous, on human cancer cell lines (SK-Br-3, MCF7, BT-474) (human, UniProt P21860 20-1342); experiment: cell-based or functional assay
T4 sequence (P21860 20-1342): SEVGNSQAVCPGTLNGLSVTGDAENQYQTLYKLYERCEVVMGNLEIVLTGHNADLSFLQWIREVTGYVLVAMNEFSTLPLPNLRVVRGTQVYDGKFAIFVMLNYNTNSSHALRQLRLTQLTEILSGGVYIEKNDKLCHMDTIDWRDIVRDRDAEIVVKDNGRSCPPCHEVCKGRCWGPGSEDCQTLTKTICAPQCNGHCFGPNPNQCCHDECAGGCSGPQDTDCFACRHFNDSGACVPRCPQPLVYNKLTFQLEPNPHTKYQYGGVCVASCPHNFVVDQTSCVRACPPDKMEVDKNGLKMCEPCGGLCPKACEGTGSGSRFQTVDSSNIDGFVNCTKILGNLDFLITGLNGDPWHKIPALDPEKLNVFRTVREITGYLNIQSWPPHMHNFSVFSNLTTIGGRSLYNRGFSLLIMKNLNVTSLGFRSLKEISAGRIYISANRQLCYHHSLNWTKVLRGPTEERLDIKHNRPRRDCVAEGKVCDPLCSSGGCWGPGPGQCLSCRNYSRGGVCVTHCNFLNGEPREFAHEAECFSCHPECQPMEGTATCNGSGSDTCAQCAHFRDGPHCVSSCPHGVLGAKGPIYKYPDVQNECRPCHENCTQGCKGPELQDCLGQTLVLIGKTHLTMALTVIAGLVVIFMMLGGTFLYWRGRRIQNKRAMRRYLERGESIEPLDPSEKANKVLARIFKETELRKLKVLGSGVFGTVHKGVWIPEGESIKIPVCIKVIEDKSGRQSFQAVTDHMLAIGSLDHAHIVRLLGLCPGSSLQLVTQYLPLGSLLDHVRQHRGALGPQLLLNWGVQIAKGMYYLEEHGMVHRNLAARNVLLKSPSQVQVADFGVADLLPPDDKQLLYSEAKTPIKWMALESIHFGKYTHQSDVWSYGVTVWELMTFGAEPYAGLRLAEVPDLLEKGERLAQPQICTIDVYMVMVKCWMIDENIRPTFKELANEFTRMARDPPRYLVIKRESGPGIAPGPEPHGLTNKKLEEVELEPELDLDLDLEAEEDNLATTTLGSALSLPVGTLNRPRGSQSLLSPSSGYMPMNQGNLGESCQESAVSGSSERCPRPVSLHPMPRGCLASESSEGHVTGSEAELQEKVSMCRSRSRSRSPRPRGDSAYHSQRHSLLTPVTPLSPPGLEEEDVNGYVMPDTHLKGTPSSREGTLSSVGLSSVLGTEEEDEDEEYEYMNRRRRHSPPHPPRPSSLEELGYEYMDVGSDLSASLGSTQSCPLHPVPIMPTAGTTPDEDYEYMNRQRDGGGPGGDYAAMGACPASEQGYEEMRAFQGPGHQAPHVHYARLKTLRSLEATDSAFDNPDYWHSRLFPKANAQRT

[5] = biological target: T4, Human HER3, endogenous, on human cancer …; experiment: cell-based or functional assay; remark: listed apart in the source
[6] = biological target: T4, Human HER3, endogenous, on human cancer …; experiment: cell-based or functional assay; remark: listed apart in the source
[7] = biological target: T5, HER3 K267A: CD33-[Human HER3, residues 20-640, K267A]-TAG (human, UniProt P21860 20-640); experiment: SET, IgG vs mutant HER3
T5 construct: also called HER3 K267A-Tag; not shown: C-terminal TAG (e.g., FLAG TAG)
T5 sequence (P21860 20-640 K267A): as the sequence (P21860 20-640 K267A/L268A) above, with A249L counted along it

[8] = biological target: T3, Hu HER3: CD33-[Human HER3, residues …; experiment: SET, IgG vs soluble HER3-Tag
Summary of the method: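 Affinity measured by solution equilibrium titration, with read-out moved from classical ELISA to ECL-based detection for sensitivity. Titration data were fitted with customized fitting models.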

T1 sequence (P21860 20-640 L268A): as the sequence (P21860 20-640 K267A/L268A) above, with A248K counted along it

binding result [1]: no binding
binding result [2]: no binding
Kd [3]: 0.037 nM
BT474 pHER3 % inhibition [4]: 70%
BT474 pHER3 IC50 [4]: 437 pM
MCF7 pHER3 % inhibition [4]: 75%
MCF7 pHER3 IC50 [4]: 412 pM
SK-Br-3 pHER3 % inhibition [4]: 81%
SK-Br-3 pHER3 IC50 [4]: 139 pM
BT-474 pAkt (S473) % inhibition [5]: 81%
BT-474 pAkt (S473) IC50 [5]: 466 pM
MCF7 pAkt (S473) % inhibition [5]: 73%
MCF7 pAkt (S473) IC50 [5]: 347 pM
SK-Br-3 pAkt (S473) % inhibition [5]: 94%
SK-Br-3 pAkt (S473) IC50 [5]: 105 pM
BT-474 proliferation % inhibition [6]: 43%
BT-474 proliferation IC50 [6]: 1.21 nM
MCF7 proliferation % inhibition [6]: 58%
SK-Br-3 proliferation % inhibition [6]: 43%
SK-Br-3 proliferation IC50 [6]: 0.198 nM
Kd [7]: 0.099 nM
Kd [8]: 0.037 nM
B1: MOR13768 (antibody, human IgG1, kappa, V domains shown)
VH: QVQLVQSGAEVKKPGESLKISCKGSGYSFTSSWVAWVRQMPGKGLEWMGIIYPGQSDTIYSPSFQGQVTISADKSISTAYLQWSSLKASDTAMYYCARVHIIQPPSAWSYNAMDVWGQGTLVTVSS
VL: DIQMTQSPSSLSASVGDRVTITCRASQSISTYLNWYQQKPGKAPKLLIFGASNLQSGVPSRFSGSGSGTDFTLTISSLQPEDFATYYCQQSITELFTFGQGTKVEIKR
notes: tested as IgG
